T1: rHuman Erythropoietin R/Fc Chimera, CF (R&D Systems Cat#963-ER) (human, UniProt P19235 25-250)
T1 construct: Bought recombinant Fc chimera; also called EPO R; EPO R/Fc; Fc part of the bought chimera not given
T1 sequence (looked up): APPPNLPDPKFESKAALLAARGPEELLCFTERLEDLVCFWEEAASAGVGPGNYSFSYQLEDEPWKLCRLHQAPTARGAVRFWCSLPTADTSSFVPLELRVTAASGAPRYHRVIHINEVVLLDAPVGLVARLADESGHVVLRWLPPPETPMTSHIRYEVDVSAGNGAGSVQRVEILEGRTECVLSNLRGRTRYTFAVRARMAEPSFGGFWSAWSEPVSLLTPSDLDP


Columns and labels:
[1] = target: T2, Recombinant Human DLL4 (delta-like protein 4) (human, UniProt Q9NR61 27-524); assay: ELISA on plate-coated DLL4, 100 nM Fab, signal minus noise
T2 construct: Bought recombinant protein (R&D Systems Cat#1506-D4/CF); also called rHuman DLL4; Delta-like 4

[2] = target: T2, Recombinant Human DLL4 (delta-like …); assay: ECL (MSD) multispot binding assay, DLL4 immobilised, 10 nM Fab, DLL4 signal over blank
[3] = target: T3, Recombinant Human DLL4 (delta-like protein 4) (human, UniProt Q9NR61 27-529); assay: 96-well plate ECL (MSD) binding assay on coated DLL4, 10 nM Fab
T3 construct: Bought recombinant human DLL4 (R&D Systems Cat#1506-D4/CF), coated on the plate; also called rHuman DLL4; Delta-like 4

[4] = target: T3, Recombinant Human DLL4 (delta-like …); assay: ELISA on coated DLL4, 100 nM Fab
[5] = target: T1, rHuman Erythropoietin R/Fc Chimera, CF …; assay: ECL multispot (MSD), antigen spotted, Fab in solution;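 note: purified Fab incubated 1 h at 20 °C on antigen-spotted wells, bound Fab detected via TAG detection antibody, ECL compared with each well's blank, ratio of 4 or above scored as hit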
[6] = target: T4, rHuman HGF R/c-MET/Fc Chimera, CF (R&D Systems Cat#358-MT/CF) (human, UniProt P08581 25-932); assay: as above
T4 construct: Bought recombinant Fc chimera; also called HGF R/Fc; hepatocyte growth factor receptor; Fc part of the bought chimera not given
T4 sequence (P08581 25-932, change not shown): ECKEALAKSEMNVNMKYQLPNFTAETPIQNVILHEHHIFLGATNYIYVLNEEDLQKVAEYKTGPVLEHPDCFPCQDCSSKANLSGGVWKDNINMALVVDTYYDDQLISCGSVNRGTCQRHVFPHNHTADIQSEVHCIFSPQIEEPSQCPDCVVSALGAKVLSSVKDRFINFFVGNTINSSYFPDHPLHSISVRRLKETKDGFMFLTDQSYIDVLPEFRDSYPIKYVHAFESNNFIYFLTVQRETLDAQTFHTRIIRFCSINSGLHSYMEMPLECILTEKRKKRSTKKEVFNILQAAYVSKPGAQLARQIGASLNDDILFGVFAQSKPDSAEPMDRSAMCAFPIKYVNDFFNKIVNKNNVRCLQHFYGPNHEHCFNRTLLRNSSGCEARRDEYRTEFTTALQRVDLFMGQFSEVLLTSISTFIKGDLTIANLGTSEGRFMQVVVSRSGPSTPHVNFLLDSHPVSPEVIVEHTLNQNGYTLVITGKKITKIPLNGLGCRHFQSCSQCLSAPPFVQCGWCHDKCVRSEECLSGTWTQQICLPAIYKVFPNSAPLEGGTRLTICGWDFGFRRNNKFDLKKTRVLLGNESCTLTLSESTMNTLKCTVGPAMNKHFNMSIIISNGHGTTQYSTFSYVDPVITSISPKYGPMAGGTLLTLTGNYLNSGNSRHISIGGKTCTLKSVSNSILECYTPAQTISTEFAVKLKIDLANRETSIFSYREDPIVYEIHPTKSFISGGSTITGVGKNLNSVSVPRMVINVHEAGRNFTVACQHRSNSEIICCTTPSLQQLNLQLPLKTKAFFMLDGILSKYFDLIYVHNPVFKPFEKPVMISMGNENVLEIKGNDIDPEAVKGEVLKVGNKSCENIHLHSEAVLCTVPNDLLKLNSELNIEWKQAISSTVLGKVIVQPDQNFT

[7] = target: T5, rHuman CD44/Fc Chimera, CF (R&D Systems Cat#3660-CD) (human, UniProt P16070 21-220); assay: as above
T5 construct: Bought recombinant Fc chimera; Fc part of the bought chimera not given

[8] = target: T6, rHuman Notch-1/Fc Chimera, CF (R&D Systems Cat#3647-TK) (human, UniProt P46531 19-526); assay: as above
T6 construct: Bought recombinant Fc chimera; Fc part of the bought chimera not given

[9] = target: T7, rHuman ErbB2/Fc Chimera, CF (R&D Systems Cat#1129-ER) (human, UniProt P04626 23-652); assay: as above
T7 construct: Bought recombinant Fc chimera; also called human epidermal growth factor 2 receptor; Fc part of the bought chimera not given

[10] = target: T8, rHuman EGF R/Fc Chimera, CF (R&D Systems Cat#344-ER) (human, UniProt P00533 25-645); assay: as above
T8 construct: Bought recombinant Fc chimera; also called epidermal growth factor receptor; Fc part of the bought chimera not given

[11] = target: T9, rHuman P-Cadherin/Fc Chimera, CF (R&D Systems Cat#861-PC) (human, UniProt P22223 108-654); assay: as above
T9 construct: Bought recombinant Fc chimera; Fc part of the bought chimera not given

[12] = target: T10, rHuman IGF-1 sR, (IGF-1 sR), CF (R&D Systems Cat#391-GR) (human, UniProt P08069 31-932); assay: as above
T10 construct: Bought recombinant soluble receptor; The column head prints only 'IGF-1'; also called insulin-like growth factor-1 soluble receptor

Row | Binder | ELISA (Signal-Noise) [1] | Signal/Noise [10 nM Fab] [2] | ECL signal [3] | ELISA signal [4] | ECL signal [5] | ECL signal [6] | ECL signal [7] | ECL signal [8] | ECL signal [9] | ECL signal [10] | ECL signal [11] | ECL signal [12]
1 | Fab VH1-46_IGHD6-6*01_IGHJ1*01 S102A/S103P/S104F/H111F S54T & L6_IGKJ1*01 (Fab, V domains shown, Fab made in E. coli; CH1 with tags and kappa CL are not included; also called APFF S54T) VH: QVQLVQSGAEVKKPGASVKVSCKASGYTFTSYYMHWVRQAPGQGLEWMGIINPTGGSTSYAQKFQGRVTMTRDTSTSTVYMELSSLRSEDTAVYYCAREEYAPFSAEYFQFWGQGTLVTVSS VL: not shown |  |  | 57200 | 0.08 |  |  |  |  |  |  |  | 
2 | Fab VH1-46_IGHD6-6*01_IGHJ1*01 S102A/S103P/S104F/H111F (APFF) & L6_IGKJ1*01 S28N (Fab, V domains shown, Fab; VH cloned into Plasmid A (CH1, His6 and Flag tags) and VL into Plasmid C (kappa CL); also called APFF / S28N) VH: QVQLVQSGAEVKKPGASVKVSCKASGYTFTSYYMHWVRQAPGQGLEWMGIINPSGGSTSYAQKFQGRVTMTRDTSTSTVYMELSSLRSEDTAVYYCAREEYAPFSAEYFQFWGQGTLVTVSS VL: EIVLTQSPATLSLSPGERATLSCRASQNVSSYLAWYQQKPGQAPRLLIYDASNRATGIPARFSGSGSGTDFTLTISSLEPEDFAVYYCQQRSNWPPWTFGQGTKVEIKR |  |  |  |  | 440 | 406 | 399 | 243 | 363 | 325 | 447 | 331
3 | Fab VH1-46_IGHD6-6*01_IGHJ1*01 S102A/S103P/S104F/H111F (APFF) & L6_IGKJ1*01 S28E (Fab, V domains shown, Fab; VH cloned into Plasmid A (CH1, His6 and Flag tags) and VL into Plasmid C (kappa CL); also called APFF / S28E) VH: QVQLVQSGAEVKKPGASVKVSCKASGYTFTSYYMHWVRQAPGQGLEWMGIINPSGGSTSYAQKFQGRVTMTRDTSTSTVYMELSSLRSEDTAVYYCAREEYAPFSAEYFQFWGQGTLVTVSS VL: EIVLTQSPATLSLSPGERATLSCRASQEVSSYLAWYQQKPGQAPRLLIYDASNRATGIPARFSGSGSGTDFTLTISSLEPEDFAVYYCQQRSNWPPWTFGQGTKVEIKR |  |  |  |  | 513 | 401 | 461 | 433 | 389 | 396 | 393 | 361
4 | Fab VH1-46_IGHD6-6*01_IGHJ1*01 S102A/S103P/S104F/H111F (APFF) & L6_IGKJ1*01 S28H (Fab, V domains shown, Fab; VH cloned into Plasmid A (CH1, His6 and Flag tags) and VL into Plasmid C (kappa CL); also called APFF / S28H) VH: QVQLVQSGAEVKKPGASVKVSCKASGYTFTSYYMHWVRQAPGQGLEWMGIINPSGGSTSYAQKFQGRVTMTRDTSTSTVYMELSSLRSEDTAVYYCAREEYAPFSAEYFQFWGQGTLVTVSS VL: EIVLTQSPATLSLSPGERATLSCRASQHVSSYLAWYQQKPGQAPRLLIYDASNRATGIPARFSGSGSGTDFTLTISSLEPEDFAVYYCQQRSNWPPWTFGQGTKVEIKR |  |  |  |  | 517 | 346 | 513 | 482 | 381 | 435 | 447 | 355

Now from value to binder:

Row | ELISA (Signal-Noise) [1] | Signal/Noise [10 nM Fab] [2] | ECL signal [3] | ELISA signal [4] | ECL signal [5] | ECL signal [6] | ECL signal [7] | ECL signal [8] | ECL signal [9] | ECL signal [10] | ECL signal [11] | ECL signal [12] | Binder
5 | 0.6 | 721 |  |  |  |  |  |  |  |  |  |  | Fab VH1-46_IGHD6-6*01_IGHJ1*01 S102A/S103P/S104F/H111F N52A & L6_IGKJ1*01 (Fab, V domains shown, Fab made in E. coli: CH1 with His6/Flag tags from Plasmid A, kappa constant region from Plasmid C; also called APFF N52A) VH: QVQLVQSGAEVKKPGASVKVSCKASGYTFTSYYMHWVRQAPGQGLEWMGIIAPSGGSTSYAQKFQGRVTMTRDTSTSTVYMELSSLRSEDTAVYYCAREEYAPFSAEYFQFWGQGTLVTVSS VL: not shown
6 | 0.14 | 142 |  |  |  |  |  |  |  |  |  |  | Fab VH1-46_IGHD6-6*01_IGHJ1*01 S102A/S103P/S104F/H111F T58A & L6_IGKJ1*01 (Fab, V domains shown, Fab made in E. coli: CH1 with His6/Flag tags from Plasmid A, kappa constant region from Plasmid C; also called APFF T58A) VH: QVQLVQSGAEVKKPGASVKVSCKASGYTFTSYYMHWVRQAPGQGLEWMGIINPSGGSASYAQKFQGRVTMTRDTSTSTVYMELSSLRSEDTAVYYCAREEYAPFSAEYFQFWGQGTLVTVSS VL: not shown
7 |  |  | 28200 | 0.02 |  |  |  |  |  |  |  |  | Fab VH1-46_IGHD6-6*01_IGHJ1*01 S102A/S103P/S104F/H111F S54L & L6_IGKJ1*01 (Fab, V domains shown, Fab made in E. coli; CH1 with tags and kappa CL are not included; also called APFF S54L) VH: QVQLVQSGAEVKKPGASVKVSCKASGYTFTSYYMHWVRQAPGQGLEWMGIINPLGGSTSYAQKFQGRVTMTRDTSTSTVYMELSSLRSEDTAVYYCAREEYAPFSAEYFQFWGQGTLVTVSS VL: not shown
8 | 0.39 | 293 |  |  |  |  |  |  |  |  |  |  | Fab VH1-46_IGHD6-6*01_IGHJ1*01 S102A/S103P/S104F/H111F S57A & L6_IGKJ1*01 (Fab, V domains shown, Fab made in E. coli: CH1 with His6/Flag tags from Plasmid A, kappa constant region from Plasmid C; also called APFF S57A) VH: QVQLVQSGAEVKKPGASVKVSCKASGYTFTSYYMHWVRQAPGQGLEWMGIINPSGGATSYAQKFQGRVTMTRDTSTSTVYMELSSLRSEDTAVYYCAREEYAPFSAEYFQFWGQGTLVTVSS VL: not shown
9 |  |  | 36800 | 0.04 |  |  |  |  |  |  |  |  | Fab VH1-46_IGHD6-6*01_IGHJ1*01 S102A/S103P/S104F/H111F S54E & L6_IGKJ1*01 (Fab, V domains shown, Fab made in E. coli; CH1 with tags and kappa CL are not included; also called APFF S54E) VH: QVQLVQSGAEVKKPGASVKVSCKASGYTFTSYYMHWVRQAPGQGLEWMGIINPEGGSTSYAQKFQGRVTMTRDTSTSTVYMELSSLRSEDTAVYYCAREEYAPFSAEYFQFWGQGTLVTVSS VL: not shown

From patent publication US20120316071A1 (published 2012)
